Data from paper PMC3407147, “Therapeutic Inhibition of Pro-Inflammatory Signaling and Toxicity to Staphylococcal Enterotoxin B by a Synthetic Dimeric BB-Loop Mimetic of MyD88” (PLoS ONE, 2012).

Target: the molecule itself
Assay: peptide or protein array; MyD88 TIR domain monomer spotted in quadruplicate on nitrocellulose-coated slides; biotinylated MyD88 (25 µg/ml) in 50 mM Hepes, 0.1% Tween, 3% human antibody serum, 2 h at room temperature; detected with streptavidin-Alexa Fluor 647; with or without pre-incubation with EM-163 (100 and 50 µg/ml) or DMSO

B1: recombinant MyD88 TIR domain (amino acids 157-296) (domain or fragment, human, UniProt Q99836 157-296, looked up)
chain: MPERFDAFICYCPSDIQFVQEMIRQLEQTNYRLKLCVSDRDVLPGTCVWSIASELIEKRCRRMVVVVSDDYLQSKECDFQTKFALSLSPGAHQKRLIPIKYKAMKKEFPSILRFITVCDYTNPCTKSWFWTRLAKALSLP
modifications: biotin (EZ Link Biotin BMCC kit) on the copy in solution; the copy spotted on the slide is not biotinylated
notes: also called MyD88 (157-296); TIR domain protein (monomer); not shown: His, N-terminal, cleaved; MBP, N-terminal, cleaved
binding result: binds
